Measured values taken from the Human Domainome abundance scans (Beltran et al. 2025).
± gives the uncertainty stated by the source.

B1: Homeobox protein cut-like 2, residues 895 to 963; numbered along this chain, O14529 (parent)
chain: EVDTLELTRQVKEKLAKNGICQRIFGEKVLGLSQGSVSDMLSRPKPWSKLTQKGREPFIRMQLWLSDQL

Variants of: B1
Assay: abundance fitness (aPCA) (normalised: wild type 0, dead -1); higher = more abundant; growth selection in yeast, the domain comes from the species named
Conditions: Homo sapiens

Variant | abundance fitness
EVDTLELTRQVKEKLAKNGICQRIFGEKVLGLSQGSVSDMLSRPKPWSKLTQKGREPFIRMQWWLSDQL [L63W] | -0.271 ± 0.087
EVDTLELTRQVKEKLAKNGICQRIFGEKVLGLSQGSVSDMLSRPKPWSKLTQKGREPFIYMQLWLSDQL [R60Y] | -0.633 ± 0.1
EVDTLELTRQVKEKLAKNGICQRIFGEKVLGLSQGSVSDMLSRPKPWSKLTQKGREPFICMQLWLSDQL [R60C] | -0.681 ± 0.27
EVDTLELTRQVKEKLAKNGICQRIFGEKVLGLSQGSVSDMLSAPKPWSKLTQKGREPFIRMQLWLSDQL [R43A] | -0.034 ± 0.029
EVDTLELTRQVKEKLAKNGICQRIFGEKVLGLSQGSVSDMLSCPKPWSKLTQKGREPFIRMQLWLSDQL [R43C] | -0.14 ± 0.072
EVDTLELTRQVKEKLAKNGICQRIFGEKVLGLSQGSVSDMTSRPKPWSKLTQKGREPFIRMQLWLSDQL [L41T] | -0.505 ± 0.035
EVDTLELARQVKEKLAKNGICQRIFGEKVLGLSQGSVSDMLSRPKPWSKLTQKGREPFIRMQLWLSDQL [T8A] | -0.064 ± 0.045
EVDTLELYRQVKEKLAKNGICQRIFGEKVLGLSQGSVSDMLSRPKPWSKLTQKGREPFIRMQLWLSDQL [T8Y] | -0.309 ± 0.056
EVDTLELTRQVKEKLAKYGICQRIFGEKVLGLSQGSVSDMLSRPKPWSKLTQKGREPFIRMQLWLSDQL [N18Y] | -0.128 ± 0.057
EVDTLELTRQVKEKLAKNGICQRIFGEKVLGLSQGSVSDMLSRPKPWSKLTQKGREPFIRMNLWLSDQL [Q62N] | -0.401 ± 0.16
EVDTLELTRQVKEKLAKNGICQRIFGEKVLGLSQGSVSDMLSRPKPWSKLTQKGREPFIRMWLWLSDQL [Q62W] | 0.005 ± 0.046
EVDTLELTRQVKEKLAKNGICQRIFGEKVLGLSQGSVSDMLSRPKPWSKLTKKGREPFIRMQLWLSDQL [Q52K] | 0.094 ± 0.084
EVDTLELTRQVKEKLAKNGICQRIFGEKVLGLSQGSVSDMLSRPKPWSKLTQKGREPFIRMQLWLFDQL [S66F] | -0.2 ± 0.053
EVDTLELTRQVKEKLAKNGICQRIFGEKVLGLSQGSVSDMLSRPKPWSKLTQKGREPFIRMQLWLQDQL [S66Q] | 0.002 ± 0.035
EVDTLELTRQVKEKLAKNGICQRIFGEKVLGLSQGSVSDMLSRPKPWSKDTQKGREPFIRMQLWLSDQL [L50D] | -0.607 ± 0.11
EVDTLELTRQVKEKLAKNGICQRIFGEKVLGLSQGSVSDMLSRPKPWSKLVQKGREPFIRMQLWLSDQL [T51V] | -0.115 ± 0.048
EVDTLELTRQVKEKLAKNGICQRIFGEKVLGLSQGSVSDMLSRPKPWSKLTQKGREPFIRMQLWLSDML [Q68M] | -0.022 ± 0.034
EVDTLELTRQVKEKLAKNGICQRIFGEKVLGLSQGSVSDMLSRPKPWSKLTQKGREPFIRMQLWLSDIL [Q68I] | -0.142 ± 0.047
EVDTLELTRQVKEKLAKNGICQRIFGEKVLGLSQGSVSDMLSRPKPWSKLTQKGREPFIRMQLWFSDQL [L65F] | -0.193 ± 0.042
EVDTLELTRQVKEKLAKNGICQRIFGEKVLGLSQGSVSDMLSRPKPWSKLTQKGREPFIRMQLWWSDQL [L65W] | -0.44 ± 0.12

Variant | abundance fitness
EVDTLELTRQVKEKLAKNGICQRIFGEKVLGLSQGSVSDMLSRPKPWSKLTQKGREPFIRMQLFLSDQL [W64F] | -0.222 ± 0.082
MVDTLELTRQVKEKLAKNGICQRIFGEKVLGLSQGSVSDMLSRPKPWSKLTQKGREPFIRMQLWLSDQL [E1M] | 0.034 ± 0.046
EVDTDELTRQVKEKLAKNGICQRIFGEKVLGLSQGSVSDMLSRPKPWSKLTQKGREPFIRMQLWLSDQL [L5D] | -0.146 ± 0.048
EVDTLELTRQVKEKLAKNGICQRIFSEKVLGLSQGSVSDMLSRPKPWSKLTQKGREPFIRMQLWLSDQL [G26S] | -0.035 ± 0.033
EVDTLELTRQVKEKLAKNGICQRIFVEKVLGLSQGSVSDMLSRPKPWSKLTQKGREPFIRMQLWLSDQL [G26V] | -0.263 ± 0.037
EVDTLELTRQVKEKLAKNGICQRIFGEKVLGLSQGSVSDMLSRPKPWSNLTQKGREPFIRMQLWLSDQL [K49N] | -0.16 ± 0.051
EVDTLELTRQVKEKLAKNGICQRIFGEKVLGLSQGGVSDMLSRPKPWSKLTQKGREPFIRMQLWLSDQL [S36G] | -0.34 ± 0.089
EVDTLELTRQVKEKLAKNGICQRIFGEKVLGLSQGFVSDMLSRPKPWSKLTQKGREPFIRMQLWLSDQL [S36F] | -0.093 ± 0.041
EVDTLELTRQVKEKLKKNGICQRIFGEKVLGLSQGSVSDMLSRPKPWSKLTQKGREPFIRMQLWLSDQL [A16K] | 0.001 ± 0.051
EVDTLELTRQVKEKLCKNGICQRIFGEKVLGLSQGSVSDMLSRPKPWSKLTQKGREPFIRMQLWLSDQL [A16C] | -0.106 ± 0.077
EVDTLELTRQVKEKLAKNGINQRIFGEKVLGLSQGSVSDMLSRPKPWSKLTQKGREPFIRMQLWLSDQL [C21N] | 0.015 ± 0.088
EVDTLELTRQVKEKLAKNGICQRIFGEKVLGLSQGSVSDMLSRPKPWSKLTQKKREPFIRMQLWLSDQL [G54K] | -0.461 ± 0.062
EVDTLELTRQVKEKLAKNGICQRIFGEKVLGLSQGSVSDMLSRPKPWSKLTQKGREPFIRMQLWLSLQL [D67L] | -0.389 ± 0.028
EVDTLELTRQVKEKLAKNGICQRIFGEKVLGLSQGSVSDMLSRPKPWSKLTQKGREPFIRMQLWLSAQL [D67A] | -0.207 ± 0.1
EVDTLELTRQVKEKLAKNGICQRIFGEKVLGLSQGSVSDMLSRPKPWSKLTQKGREPFIRMQLWLSFQL [D67F] | -0.64 ± 0.045
EVDTLELTRQVKEKLAKNGICQRIFGEKVLGLSQGSVSDMLSRPKPWIKLTQKGREPFIRMQLWLSDQL [S48I] | -0.223 ± 0.047
EVDTLELTRQVKEKLAKNGICQRIFGEKVLGLSQGSVSDMLSRPKPWAKLTQKGREPFIRMQLWLSDQL [S48A] | -0.064 ± 0.045
EVDTLELTRQVKEKLAKNGICQRIFGEKVLGLSQGSVGDMLSRPKPWSKLTQKGREPFIRMQLWLSDQL [S38G] | -0.097 ± 0.033
EVDTLELTRQVKEKLAKNGICQRIFGEKVLGLSQGSVSDMLSRPKPWSKLTQKGRPPFIRMQLWLSDQL [E56P] | -0.605 ± 0.047
